Results taken from the DeepSol protein solubility set.

Experiment: soluble on expression in E. coli; label from the status in PepcDB or PDB records

Sequence	soluble on expression in E. coli
MEGIDHLADERNKAEFDVEDMKIVWAGSRHAFEVSDRIARLVASDPVFEKSNRARLSRKELFKSTLRKCAHAFKRIIELRLNEEEAGRLRHFIDQPAYVDLHWGMFVPAIKGQGTEEQQKKWLSLANKMQIIGCYAQTELGHGSNVQGLETTATLDPKTDEFVIHTPTQTASKWWPGGLGKVSTHAVVYARLITNGKDYGIHGFIVQLRSLEDHSPLPNITVGDIGTKMGNGAYNSMDNGFLMFDHVRIPRDQMLMRLSKVTREGEYVPSDVPKQLVYGTMVYVRQTIVADASNALSRAVCIATRYSAVRRQFGAHNGGIETQVIDYKTQQNRLFPLLASAYAFRFVGEWLKWLYTDVTERLAASDFATLPEAHACTAGLKSLTTTATADGIEECRKLCGGHGYLWCSGLPELFAVYVPACTYEGDNVVLQLQVARFLMKTVAQLGSGKVPVGTTAYMGRAAHLLQCRSGVQKAEDWLNPDVVLEAFEARALRMAVTCAKNLSKFENQEQGFQELLADLVEAAIAHCQLIVVSKFIAKLEQDIGGKGVKKQLNNLCYIYALYLLHKHLGDFLSTNCITPKQASLANDQLRSLYTQVRPNAVALVDAFNYTDHYLNSVLGRYDGNVYPKLFEEALKDPLNDSVVPDGYQEYLRPVLQQQL	soluble
MDNDKNSIIDIVGDGINYEKLKKVEKSLCQIDIITEFMNRSRHLQGKKVNGCIMRIDETKQLLFHVIIDGPVGSIYEGGTFFADINIQPYQNHSLIPRVCFHTFIFHPNLGKYGNWDMRGIQWERRSNLEVLYNFIVEGMRNVKYDIERRNLAQLEDMSQPNISRLAKEDWPKFERTAREFVMKMAGGTINGRKTIFAETKKRRRQDFLDEDIDVIGIS	not soluble
TAPIAITCFTRGLDIRKEKADVLCPGGCPLEEFSVYGNIVYASVSSICGAAVHRGVISNSGGPVRVYSLPGRENYSSVDANGIQSQMLSRWSASFTVTLE	soluble
MIEADYLVIGAGIAGASTGYWLSAHGRVVVLEREAQPGYHSTGRSAAHYTVAYGTPQVRALTAASRAFFDNPPAGFCEHPLLSPRPEMVVDFSDDPEELRRQYESGKALVPQMRLLDAEQACSIVPVLRRDKVFGATYDPTGADIDTDALHQGYLRGIRRNQGQVLCNHEALEIRRVDGAWEVRCDAGSYRAAVLVNAAGAWCDAIAGLAGVRPLGLQPKRRSAFIFAPPPGIDCHDWPMLVSLDESFYLKPDAGMLLGSPANADPVEAHDVQPEQLDIATGMYLIEEATTLTIRRPEHTWAGLRSFVADGDLVAGYAANAEGFFWVAAQGGYGIQTSAAMGEASAALIRHQPLPAHLREHGLDEAMLSPRRLSPLEHHHHHH	not soluble
MPRKPKRPCSFPGCPELTDGRYCDMHQRQMDAYYNKYERDPQTRKRYDRRWKRIRDRYISEHPLCEECQKYGRLTPAEEVHHIIPLSKGGTNADSNLMSLCKQCHSSITAREGERWARR	not soluble
SSNKEGSGGFRKRKHDNFPHNQRREGKDVNSSSPVMLAFKSFQQELDARHDKYERLVKLSRDITVESKRTIFLLHRITSAPDMEDILTESEIKLDGVRQKIFQVAQELSGEDMHQFHRAITTGLQEYVEAVSFQHFIKTRSLISMDEINKQLIFTTEDNGKENKTPSSDAQDKQFGTWRLRVTPVDYLLGVADLTGELMRMCINSVGNGDIDTPFEVSQFLRQVYDGFSFIGNTGPYEVSKKLYTLKQSLAKVENACYALKVRGSEIPKHMLADVFSVKTEMIDQEEGIS	soluble
MTPSVAQNTKYVNLFIGTSGDNGQVAPGAAAPFGMVCVCPDNDPRSHAGYDYAVTKVSGISVNRLSGVGCSGGGGNLRIRPVAPSQELHIKKSREKATPGYYSTAFTNGIKTELTATNAMAVERYKFPRSLSAALWIDFASTFEDVATCHYKRISETCIEGYVQAKNVCGHGCYKLYFSLNTSQPLEHHHHHH	not soluble
VSAPDSPALAGMSIGAVLDLLRPDFPDVTISKIRFLEAEGLVTPRRASSGYRRFTAYDCARLRFILTAQRDHYLPLKVIRAQLDAQPDGELPPFGSPYVLPRLVPVAGDSAGGVGSDTASVSLTGIRLSREDLLERSEVADELLTALLKAGVITTGPGGFFDEHAVVILQCARALAEYGVEPRHLRAFRSAADRQSDLIAQIAGPLVKAGKAGARDRADDLAREVAALAITLHTSLIKSAVRDVLHR	soluble
MGSDKIHHHHHHMDVIKQIQQAIVYIEDRLLEPFNLQELSDYVGLSPYHLDQSFKMIVGLSPEAYARARKMTLAANDVINGATRLVDIAKKYHYANSNDFANDFSDFHGVSPIQASTKKDELQIQERLYIKLSTTERAPYPYRLEETDDISLVGYARFIDTKYLSHPFNVPDFLEDLLIDGKIKELRRYNDVSPFELFVISCPLENGLEIFVGVPSERYPAHLESRFLPGKHCAKFNLQGEIDYATNEAWYYIESSLQLTLPYERNDLYVEVYPLDISFNDPFTKIQLWIPVKQSPYDED	not soluble
MDREALLQAVKEARELAKPRNFTQSFEFIATLKEIDMRKPENRIKTEVVLPHGRGKEAKIAVIGTGDLAKQAEELGLTVIRKEEIEELGKNKRKLRKIAKAHDFFIAQADLMPLIGRYMGVILGPRGKMPKPVPANANIKPLVERLKKTVVINTRDKPYFQVLVGNEKMTDEQIVDNIEAVLNVVAKKYEKGLYHIKDAYVKLTMGPAVKVKKEKAKKK	soluble
HPECKKSVEDVNNDLKKFVSINGKKTVTEFHRELGKIMWNNVGMARSEESCKEALKVIPQIREEFWKNVKVSGSGAEFNQQLENAGRVADFLEFAELMTLDALHRNESCGGHFRVEHQMPD	not soluble
MGSDKIHHHHHHMKLPRFGVEEWLNVHENSAIYDIAGVSISSLTLEELFALSGTNPEDFYKKLQGTKLNYGWIEGSPAFKKSVSQLYTGVKPEQILQTNGATGANLLVLYSLIEPGDHVISLYPTYQQLYDIPKSLGAEVDLWQIEEENGWLPDLEKLRQLIRPTTKMICINNANNPTGAVMDRTYLEELVEIASEVGAYILSDEVYRSFSELDVPSIIEVYDKGIAVNSLSKTYSLPGIRIGWVAANHQVTDILRDYRDYTMICAGVFDDLVAQLALAHYQEILERNRHILEENLAILDQWIEEEPLVSYIRPAVVSTSFVKIAVDMPMEDFCLQLLQEHGVLLVPGNRFERDGYVRLGFACEQETLIKGLEKLSQFLRRFDKEN	not soluble
MGHHHHHHSHNTTKPKSLAVKKAKWHLGIRSQSKPYDIMAEVYRAMKQLDFEWKVVNAYHLRVRRKNPVTGNYVKMSLQLYLVDNRSYLLDFKSIDDEVVEQRSGS	not soluble
GPGSMDCWNTRRDSKEFQHEAVEMDSLQANCGAPNEQAFHDTLVSAAYQLRARQRDTNVSISKAEMEGLVVLTRELENFKQMMKRSEFTVEGTWRIVEDGGMVERFGQQLYAELLTRNPRLRVHFHGVDIEEQSKSLLRMVGTAVHFYQKPQLTVDMFTKAGARHRGYGVNAEVFVEMRNAFMRVFSEFVGTDVFEAVEEEWRKFWKYVLDLLVHGSESAEGERYGKMYEEKMLKTIQADFKLIMERQNKCDLRGQFVSVMYSKAIEMHEELSKFEALKDLRASARVLQAYIDIINNIHDKKLLDEYMRELGGRHTAYNVTVENLQAFTEPFLFTCRHFFEEEWNIAAESRFLWLFEYMIDGISAGMVSDINSIVNLRAPSNSVTFGLIFTDIEASTRLWSKDSKSMSLAVKSHHAMIRRLIADYGAYEVKTVGDSFIIATKDVLVAVKLSLAIQLELMRMAPIAPGFAMVDSTEGHGDPQAWDDRTLRVRIGVEHCTDATATYDTIHRRYDYYGASVNRCARIEAAACGGQILLCRESFEYLKSMPEFHNDPCPHFLRHVEIATPPPKVDSRGLDHFVVVSDVGLASFKGIAEPVHLLSLVPRCLAGRQFTEKFTKVSE	not soluble
MAHHHHHHMSATPSNVLLGLFDGYMSHKRDQLTSETKLGGTPTYFPPLSDADKAQIRRWTSCGVCGHAMSLLTQAYSPLPTAPASRPHHRMVYVFGCNSGYCSRQPTSSMVAFSVQVDQEDEQALAENAEEEDEDEVIETGPLLPSELPEAVLPPCYVYIDAEPSKEAVVPTDIERELIKMAEENARSTVTDEELQQLEQTVDLKDTKTDYYYEKFRSRVARAPNQVLRYYERTVAAAAATSASLRAKDVKPIFMNPDKVKAMVTIPACACCGSTQTAELQVMPTSLYYLHVSEYTALARADAAAMAAPAGTLAAASTHSNVVDTQSPVASPSASTTTCKASALSGAATGTEKAIPANVDDGCDFGTITVYVCAKDCAARQHGVVLRRETLCVEEAPTMRDEERAGKADAAKAGTDGATHKVTLRELLHGNGEGGEDMEDDDEGHIDDEAVSTA	soluble
